These results are taken from a protein production outcome set (Wang et al. 2014).
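Further: failed if final PepcDB status was selected cloned or expressed and not failed if soluble or beyond.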

The data set is described as follows: label from the status in PepcDB records.
Turning to “MIKRDFRKKLTMCLASVMALNLGISVSVKADEGLKNEIKNNDITKDISIYPTPKDMTVGNSEFTLEDSVNIVGGDLADTYAFELLKNMLTEFGIKINESEIEGATTIYIGESDDNIEEMENTLEEMNVDTSSISKDEGYVLVTDENIEGNKIVIRGNDETGTFYGVKSLKQLIKKEDNKVILDEVVIKDEPSFKMRAVVEGFYGTPWSQEERLDQIKMYGEYKMNAYIYAPKSDPYHREKWREPYPASELDRMKELIKTANENKVDFVFAISPGLDIKFEGEEGEADFKALINKAETLYDMGVRSFAILWDDIENRSGVQQAEVLNRFNKEFIKNKEGVKPLITVPVEYWGSSMFNGEEVKTYTKEFAETLDKDIEVMWTGNDVIPPNGVSLEDAKKVSNVYNRKMMLWWNYPVNDYKEDKMALGPIYDLDRNLDEDVSGFIVNPMRFSDASKISTLTGADYGWNSISYEAEKSWDKAIEIIAGEMKEEFKIFANHSTRLDTGRPDSPEIKNTIDSLWEKWEAGSDISLELSNLQNEFSKMVQVPNKLRSNLENKALLNQLDSHLSKFEIYGNAGLKSIEILQDILNKDMSEFWSDNFEGIKLLRNLDGIKATIANNVVDPFIRKVHEVGNEYFNKETTVLEEKEYSYTSIGNIVDHKYSEWFISEETHVPNYMFDDKDNTGFWSAAPVQKDEFIGFDLGEAEEIKDIYLLMGRNNNDTDVLTNGVIEYSLDGENWTELEVNKGERELLVETGIKARFIRYRALSDSENKLYVRDFKVNTGKSKEKLIGDVEVKDSNINKSSEGENEIISASNINKISFEEGDSIGLAINDVKNVIGFEVLGDVESNKFVLESSFDNIEWEEVCNGTSFKDETPLVGKFFRIRAKEKTEANINEIKISLEGYSKGIVSTNRRISSNANIHPDFVADNDYGTSFVCSDTIKKGDFVQLDLGVEKKIRDISLVQGPGGDYMDGDIEYSLDGENWIKLGVVEGTDTLIKDLDVKARYVRVISTGYKDRWSRVREFTVNKTVKEFETKATSEGTYIDRSENIRDNNLNSAYIPEGEIKSGDYLLRRIFNERLVSKVTVAQSTDNLSGAKVIGKTVNGETLDLGVLDKGLNELVLKNPRQLVSVKLVWEKDAGKVEIFEVKPTFVSLDYIIEDIKNEIQRGKDVLVEHKDKENEERTQLEEALKNIENLLNNKASDDEIVRAYEDLTNKINNFIDSEPNKEEENKPSKPEGGENGSEGEGDKEDSGDKNENEDNKDENGNLPNTGSPLGAGELMLVGAALATLGGVTIKKKK”, the protein production entry is “failed”.

For “MKTGKELKPGTVLRIDNDPWLVQKAEFTKSGRNSAIMKTKLKNLLTGYKTETVYGADDKLDDVILDRKEATLSFINGDEYTFMDTTDYTMYELNAEDIEAVLPYIEEGMEDVCEAVFFEGRLVSVELPTTISRKVVYTENAARGDTSGKVMKPAKLANGTEISVADFIQIDEWIDIDTRDNSFKGRSKKLEHHHHHH”, the protein production entry is on record as “not failed”.

As to “MFPFENQRLPISALIHKKNHSRLQPHPLFEEQPMKILLIGANGTIGSAVARELEQRHEVVRIGRTSGDFQVDISDSQSIRALFEKTGRFDALVCAAGNVTFAPLGEMTAEHFSLGLEDKLMGQVNLLLIGREYANDGASFTFTTGVLSHDPIRSGASAALVNGAIDSFVRAAAIELPRGLRVNSISPNVLLEAMGSYAPYFRGFKPVPAADVALAYAKSVEGLQTGQTYRVG”, the protein production result is given as “failed”.

As for “MGHHHHHHSHMTLEEFSAGEQKTERMDKVGDALEEVLSKALSQRTITVGVYEAAKLLNVDPDNVVLCLLAADEDDDRDVALQIHFTLIQAFCCENDINILRVSNPGRLAELLLLETDAGPAASEGAEQPPDLHCVLVTNPHSSQWKDPALSQLICFCRESRYMDQWVPVINLPER”, the protein production entry is recorded as “failed”.

With “MNRLLNEKVEEFKKGVLKAGWFIEKMFRNSISSLVERNESLAREVIADEEVVDQMEVEIQEKAMEVLGLFSPIGKPLLTVTAGIRVAELIENIADKCHDIAKNVLELMEEPPLKPLEDIPAMANQTSEMLKFALRMFADVNVEKSFEVCRMDSKVDDLYEKVREELLLYMMESPKYVKRALLLLEIAGNIEIIADYATNIVEVSVYMVQGEAYKCYHDELLLFKKSGGVLFESSD”, the protein production entry is recorded as “not failed”.

Consider “MDKNILAIIFVAVGTYLIRYIPIHLHSKIKNIDEKVKEINEILIYSSTSVISALFITSFIKFPIIFSNVLISTISLIFAIVSYKKWNNLGISILISVVIYYLASKFLISI”, for which the protein production result is recorded as “failed”.

Take “MFRDFRMSLLVAVICLGLAAWWGHTSSMGIWQALWLCLVLSVLEVSLSFDNAVVNAGVLKHMNAFWQKLFLTVGILIAVFGMRLVFPIVIVSVATGMGLVPVMQMALKEPDRYSQVLTDNYPSIAAFGGMFLLLVFLNFLFDQERKLHWLGPVERLVGKLGKADAMSVIVAVSVLLGTKLFLPDGIFQSVLFAGLGGILLYLLVGSVDALFEAEESEDGSMGPAKRSGIAAFLYLEVLDASFSFDGVIGAFAITRDVVIIMLGLAIGAMFVRSMTVYLVHKGTLDEFVFLEHGAHYAIGVLAIIMLVGTVYHVPEVLTGLIGVAFIAASVWSSIRYRKRHHIGPTEI”: the protein production entry is recorded as “failed”.

For “MPHLNILIVRIEEFLRSIVKITSAPTYKTRVKSFNSYYLKLLKFPPKKDTSDLPVLTDILGVRIICPFLQDINEVERILLKNFKIIEVERKGSERTFREFGYESVHFLLDIPEEFKVGLVLPKNLIFEIQLRTILQDAWAEVEHELVYKSEFSPFDQPLKRKLASINASLSLADIIFQEIRDYQNKLNAELEKRRFEFYSMADEYTAQVLPETNIVQHDNVEHGEELKLAETIDDLILSAIEAHNQNLFDKAEKIYTKIIEQNPNDIVLSVVYKHRGMAYFAQANYEGAYADFLQSCKYNSANFRSFYYVGIALTLLNRDDEAIEYFTKSLEINKFQAHVYFRRALSYFKLALYPEAARDLDSASDLGLAEEDAKKLRIAIAKKIDMV”, the protein production result was “failed”.

With “MAQKKGFKYRFYPTDKQKAVLAKVFGHTRYVWNWALELRTDAYYEEGESLSYTDTAKRLTDLKKEKTWLREVSSVALQQKLRDLDQAFQNFFDGRCGYPNFKSKHDKQAARFASNAFTLHGKKLSVAKVPGSLNVRWSRDLPDEAKPTSVTLTKDPAGRYFVSITSAVPEPDPEPTVTDGDGNQKSVGIDLGIADIVVTSDGWKSGNPRHLENDLYRLRKAQRRLSRKEKNGSDGPSENWKKQKRRVAKIHAEIKDKREDFLHKLSRRVVDENQVIALESLSVKGMQQNRSLARPISDTGWSTLVRMIEYKAKEAGRTVVKIDRWFPSTKRCSECGYVTESKPLSVRSWDCPRCDTTHDRDINAAKNIRTAGLAGAFQKANDSGGHSKTRDAFRIERFGANAHGPVNE”, the protein production result is “failed”.

As to “MKIGIMSDTHDHLPNIRKAIEIFNDENVETVIHCGDFVSLFVIKEFENLNANIIATYGNNDGERCKLKEWLKDINEENIIDDFISVEIDDLKFFITHGHHQSVLEMAIKSGLYDVVIYGHTHERVFEEVDDVLVINPGECCGYLTGIPTIGILDTEKKEYREIVLE”, the protein production result is listed as “not failed”.

Take “MSADLKQSRLADWRQRALAFEREVGKAVIGLERPIRHILIAVFARGHVMLEGDVGVGKTTLLRAVARCLGGAYERVEGTIDLMPNDLVYHTYINELGKPQVEPGPVLKHGEELSVFFFNEVNRARPQVHSLLLRIMAEHAVSAFNREHFFPYLQVFADRNRVEKEETFEIPSAARDRFMMELHVETPADPALRRALMFDPKFHDVDRLLDTLTPGILPYREIPQIAPVIQQSVTASETLQQYALDLWEATRRPADYGVKLEGIDMDRLILAGASARGVSMMMRAARVAAWLDGRDYLVPEDIHDVFRETIGHRVFFNPVYELRRTALIDELLHAIRQKVAAPLEHHHHHH”: the protein production entry is on record as “not failed”.

As for “MRNKDNQHSRLYYIILTIVIIAICVVVVILFNTLKTNRSHSTDRYADFTELKKDTIKNKDWRIKTKHRKNKDILVTAIHGGGIEPGTTEIARRISNVGKYNFYTFEGLRKSNNDQLHVTSTQFNEPILDKLLKNTKETLSIHGFSGDDPIVYIGGKDKEMSHSITKELRKKDFTVKESPNKIDAKSSDNIANKNESNSGVQLELTTALRKQFFKHYKLDRHTRSDSDKYTKDFYKFANAVQKGIEKVNLEHHHHHH”, the protein production entry is recorded as “not failed”.

Consider “MALRLAVPAMTAQLPPGVTHVDCSTLDMPNAYVVVDDNETTLVDAGWPGDEQTVRDGLHTAGVEPGDIDRVLVTHYDADHVGTLARLTPALDAPVYVHERDAPYVAGDRLPPWTARNGIGALHRLYYRRLDLPDLPIRAVVDGDDIGGFHAYHTPGHTPGHVAYVHEDLSVAFLGDLAYGLGDRLKPTGWLTSSDAAAVESSVRSLCRRAPAFEYACPGHGPPLPDGDDRLAEALP”, for which the protein production result is recorded as “failed”.

Consider “MYLEKLQQWRYATADFSGAHITDDVLDKLLNTTRLTASSYGLQPYCTLVIRNKGLREQLVNHSFGQQKVADSSALVIFAAKTGAVADIVDPYISELSQQRQLTNEEAENTRNYFTQKLQAMSAATRKEWAVRQAYIGLGTFLLAAAELEVDSCPMEGIEHDAYDNILSLKDLGLSTVFACPVGYRSEADTTQFQKKVRQPLSRFKVVL”, for which the protein production entry is given as “not failed”.

For the sequence “MKSLETMARYKKELTECARNLKLPFLAEHLDEILHEAQEKQQTYSEFLSTCLMRELRDKERRSYLTRLKFAGLPARYDLDLYDFSRTEGIDQRQMRELRELVWIRRTYNLLLVGDSGTGKTFIASGLIHEAVKAGYKAYLLTLEELFVCLKTKEISRPAMKTYKRIMKAQLLAIDDVTLFPLKGEDVLLLFKLVNCVQGKTSLIITASRDLTGWLEMAGDEVCAAALLDRLLYCCEIIRLSGKSYRMENRKTIFSNQQIGTASLEHHHHHH”, the protein production result was “failed”.

As to “MGMMSSLRRLGKRRPVLGILFVVVLSIGLVGSYAIFSTPKAPVAPSESQAQAPDANQQAEAMQKAAQEQISKLETDIANLQKDLQAKPGDIATAVKLGDSQYNLGTLYLFVNGDQEKATQTFKAAVATYQQVLKLNPAEKGINLRLAGAALYAGDSKLAEDNFQAAIKADPNDNNARMTYGMYLASMKGDYQGAIDQWQEILKHNPDKDLATQVQEMIKQAETAKQDANKSAANQPPANQPQANGGQGSGK”, the protein production result was “failed”.

On to “MQFPSIEDLRARNTMKWTRYGQGVLPLWVAESDFSTCPAVLQAITDAVQREAFGYQPDGSLLSQATAEFYADRYGYQARPEWIFPIPDVVRGLYIAIDHFTPAQSKVIVPTPAYPPFFHLLSATQREGIFIDATGGINLHDVEKG”, for which the protein production entry is “failed”.

Turning to “MQSTAFSLYIIDTLHDSLIFATILMSALLPKIILGPLGGVFVDWFDRKKFLVVIDLISGVLLLISALVYGNNLSLPIIYFICISLGIMNSVDEPLVVALIPSLVEKEKLVTANSINMFSTALGNIIGPILGAVVYSSFGIDTILYINASSFIIGAILEFMINIENKKKISQSKTIFNFLEDFKAGLIYIVRNRIILVIVVSIFFQNFFFNGATTVGVPFLAKQILKVSNAEFAILETTLIVGSIFGLLVASNLIKDKPLASLFPKLLFVISVCFLMIGLICIFLLKKQLMAYVFIAIIYICLGMLSMNVNVLFQTEMQKIVDESMFGRVSSLILSLIMSSIPLGQLVYGYLFKVVSPSIPFLVTFIAICCVSTLFSLSLRNSEL”, the protein production entry is on record as “failed”.

With “MPKANLEIIRSTYEGSASSNAKHLAEALSEKVEWTEAEGFPYGGTYIGVEAIMENVFSRLGSEWNDYKASVNMYHEVSGKDVIIAEGMYSGVYKDTGKSFEAEFVHVWQLENGKIVKFKQYVDSHLVREAMKS”, the protein production entry is listed as “not failed”.

Turning to “MFSKIFKSFFYSWLATLFSTSLILCICFGNSHPVAIVNAQTPDAYKLVNQGIESYKKGDFHAAIKPWEAALDSYQKNNDFRNIAIINENLARTYQQLGNKSLTLSYWEKVKDYYHSQKNLQKVGRILTEIAQIYSNSGQTKKSYQSFMWCKYINLSNRECITNCPGTTR”, the protein production entry is reported as “failed”.
